Measurements from PMC4670825.

How the values were obtained:
NF-κB RelA (p65) = NF-κB RelA (p65) (UniProt Q04206 1-551); experiment: fluorescence anisotropy
FOXO3 = FOXO3 (UniProt O43524 1-673); experiment: fluorescence anisotropy
Sequence of FOXO3 (O43524 whole entry): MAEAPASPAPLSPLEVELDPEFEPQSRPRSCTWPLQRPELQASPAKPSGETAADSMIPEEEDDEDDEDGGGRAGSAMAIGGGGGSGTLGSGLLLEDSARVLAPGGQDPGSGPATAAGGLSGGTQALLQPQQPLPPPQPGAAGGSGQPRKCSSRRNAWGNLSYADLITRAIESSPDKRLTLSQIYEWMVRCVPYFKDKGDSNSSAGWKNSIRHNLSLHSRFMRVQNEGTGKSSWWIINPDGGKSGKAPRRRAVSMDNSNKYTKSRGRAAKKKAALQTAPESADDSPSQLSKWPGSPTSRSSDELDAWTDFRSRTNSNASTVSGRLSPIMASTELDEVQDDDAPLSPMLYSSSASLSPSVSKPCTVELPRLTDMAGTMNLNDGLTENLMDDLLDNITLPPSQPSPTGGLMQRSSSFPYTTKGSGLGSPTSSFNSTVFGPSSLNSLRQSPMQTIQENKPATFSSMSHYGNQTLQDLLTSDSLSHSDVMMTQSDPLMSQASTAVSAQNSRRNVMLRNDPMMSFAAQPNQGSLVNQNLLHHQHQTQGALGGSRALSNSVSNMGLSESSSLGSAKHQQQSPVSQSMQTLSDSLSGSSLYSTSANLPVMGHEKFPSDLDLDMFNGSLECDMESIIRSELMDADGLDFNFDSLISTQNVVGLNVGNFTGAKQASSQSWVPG

Sequence of NF-κB RelA (p65) (Q04206 whole entry): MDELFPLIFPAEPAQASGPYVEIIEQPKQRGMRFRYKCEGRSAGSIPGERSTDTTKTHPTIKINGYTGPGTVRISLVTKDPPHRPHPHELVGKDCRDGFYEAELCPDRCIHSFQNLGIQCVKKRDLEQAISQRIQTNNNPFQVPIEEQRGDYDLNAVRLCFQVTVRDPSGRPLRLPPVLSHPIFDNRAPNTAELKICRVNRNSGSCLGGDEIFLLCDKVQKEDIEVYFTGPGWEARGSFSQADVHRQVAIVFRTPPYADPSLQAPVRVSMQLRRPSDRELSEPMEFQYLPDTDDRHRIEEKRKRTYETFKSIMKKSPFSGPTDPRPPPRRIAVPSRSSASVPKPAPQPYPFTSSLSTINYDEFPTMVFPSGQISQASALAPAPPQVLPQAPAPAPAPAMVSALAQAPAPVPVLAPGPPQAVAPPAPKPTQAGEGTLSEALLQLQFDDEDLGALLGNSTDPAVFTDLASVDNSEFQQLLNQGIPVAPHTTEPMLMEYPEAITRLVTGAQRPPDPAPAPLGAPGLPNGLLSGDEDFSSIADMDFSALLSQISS

B1: FOXO3 consensus duplex (dsDNA)
DNA 1: CGCATCCTATGTAAACAACTCGAGTC
DNA 2: GACTCGAGTTGTTTACATAGGATGCG
binding result (NF-κB RelA (p65)): no binding | binding result (FOXO3): binds
